B6: GAL4 DBD fused Rb fragment (aa 371-928) (other)
chain: MKLLSSIEQACDICRLKKLKCSKEKPKCAKCLKNNWECRYSPKTKRSPLTRAHLTEVESRLERLEQLFLLIFPREDLDMILKMDSLQDIKALLTGLFVQDNVNKDAVTDRLASVETDMPLTLRQHRISATSSSEESSNKGQRQLTVSPHTPVRTVMNTIQQLMMILNSASDQPSENLISYFNNCTVNPKESILKRVKDIGYIFKEKFAKAVGQGCVEIGSQRYKLGVRLYYRVMESMLKSEEERLSIQNFSKLLNDNIFHMSLLACALEVVMATYSRSTSQNLDSGTDLSFPWILNVLNLKAFDFYKVIESFIKAEGNLTREMIKHLERCEHRIMESLAWLSDSPLFDLIKQSKDREGPTDHLESACPLNLPLQNNHTAADMYLSPVRSPKKKGSTTRVNSTANAETQATSAFQTQKPLKSTSLSLFYKKVYRLAYLRLNTLCERLLSEHPELEHIIWTLFQHTLQNEYELMRDRHLDQIMMCSMYGICKVKNIDLKFKIIVTAYKDLPHAVQETFKRVLIKEEEYDSIIVFYNSVFMQRLKTNILQYASTRPPTLSPIPHIPRSPYKFPSSPLRIPGGNIYISPLKSPYKISEGLPTPTKMTPRSRILVSIGESFGTSEKFQKINQMVCNSDRVLKRSAEGSNPPKPLKKLRFDIEGSDEADGSKHLPGESKFQQKLAEMTSTRTRMQKQKMNDSMDTSNKEEK

Legend:
[1] = target: T1, GAL4 DBD fused with C-terminal fragment (aa 595-918) of wild-type AR (human, UniProt P04386 1-147 (Saccharomyces cerevisiae entry)); test: yeast two-hybrid, plate nutritional selection
T1 construct: range 1-147; also called pAS2-AR; pAS2-wtAR

[2] = target: T1, GAL4 DBD fused with C-terminal fragment …; test: yeast two-hybrid, 10 nM DHT
[3] = target: B6; test: mammalian two-hybrid, DU145, CAT
[4] = target: T2, VP16 fused near full-length AR (nAR, aa 36-918) (human, UniProt P10275 36-919); test: cell-based or functional assay
T2 sequence: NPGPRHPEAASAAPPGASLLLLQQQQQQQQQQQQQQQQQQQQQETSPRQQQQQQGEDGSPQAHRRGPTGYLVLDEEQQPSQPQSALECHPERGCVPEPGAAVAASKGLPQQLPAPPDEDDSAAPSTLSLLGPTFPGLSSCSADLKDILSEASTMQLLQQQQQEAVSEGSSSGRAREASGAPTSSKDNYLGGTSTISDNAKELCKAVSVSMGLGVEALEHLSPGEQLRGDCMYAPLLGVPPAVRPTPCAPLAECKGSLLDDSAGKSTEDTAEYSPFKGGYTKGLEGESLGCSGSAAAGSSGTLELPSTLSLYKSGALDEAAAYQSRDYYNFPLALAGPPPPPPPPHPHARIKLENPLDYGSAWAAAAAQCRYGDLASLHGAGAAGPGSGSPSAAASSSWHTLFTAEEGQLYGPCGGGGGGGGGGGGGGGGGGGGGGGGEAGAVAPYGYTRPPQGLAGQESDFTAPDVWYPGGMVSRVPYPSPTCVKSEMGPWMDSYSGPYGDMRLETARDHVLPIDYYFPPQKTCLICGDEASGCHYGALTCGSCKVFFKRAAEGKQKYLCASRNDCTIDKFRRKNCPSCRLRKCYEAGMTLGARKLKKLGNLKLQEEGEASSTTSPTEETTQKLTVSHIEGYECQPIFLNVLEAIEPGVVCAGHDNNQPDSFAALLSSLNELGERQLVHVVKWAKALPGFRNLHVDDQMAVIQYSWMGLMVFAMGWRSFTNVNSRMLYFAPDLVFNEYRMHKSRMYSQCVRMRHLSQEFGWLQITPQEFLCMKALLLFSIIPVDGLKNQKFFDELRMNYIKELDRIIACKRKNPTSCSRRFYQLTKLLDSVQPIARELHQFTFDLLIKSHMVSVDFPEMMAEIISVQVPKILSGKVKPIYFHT

[5] = target: pGAL0-AR: GAL4 DBD (a.a. 1-147) fused to hinge and LBD of wtAR (human, UniProt P04386 1-147 (Saccharomyces cerevisiae entry)); test: cell-based or functional assay
[6] = target: T3, VP16 fused AR (Example 3) (human, UniProt P10275 36-920); test: mammalian two-hybrid, DU145, pG5-Luc
T3 construct: also called VP16-AR
T3 sequence: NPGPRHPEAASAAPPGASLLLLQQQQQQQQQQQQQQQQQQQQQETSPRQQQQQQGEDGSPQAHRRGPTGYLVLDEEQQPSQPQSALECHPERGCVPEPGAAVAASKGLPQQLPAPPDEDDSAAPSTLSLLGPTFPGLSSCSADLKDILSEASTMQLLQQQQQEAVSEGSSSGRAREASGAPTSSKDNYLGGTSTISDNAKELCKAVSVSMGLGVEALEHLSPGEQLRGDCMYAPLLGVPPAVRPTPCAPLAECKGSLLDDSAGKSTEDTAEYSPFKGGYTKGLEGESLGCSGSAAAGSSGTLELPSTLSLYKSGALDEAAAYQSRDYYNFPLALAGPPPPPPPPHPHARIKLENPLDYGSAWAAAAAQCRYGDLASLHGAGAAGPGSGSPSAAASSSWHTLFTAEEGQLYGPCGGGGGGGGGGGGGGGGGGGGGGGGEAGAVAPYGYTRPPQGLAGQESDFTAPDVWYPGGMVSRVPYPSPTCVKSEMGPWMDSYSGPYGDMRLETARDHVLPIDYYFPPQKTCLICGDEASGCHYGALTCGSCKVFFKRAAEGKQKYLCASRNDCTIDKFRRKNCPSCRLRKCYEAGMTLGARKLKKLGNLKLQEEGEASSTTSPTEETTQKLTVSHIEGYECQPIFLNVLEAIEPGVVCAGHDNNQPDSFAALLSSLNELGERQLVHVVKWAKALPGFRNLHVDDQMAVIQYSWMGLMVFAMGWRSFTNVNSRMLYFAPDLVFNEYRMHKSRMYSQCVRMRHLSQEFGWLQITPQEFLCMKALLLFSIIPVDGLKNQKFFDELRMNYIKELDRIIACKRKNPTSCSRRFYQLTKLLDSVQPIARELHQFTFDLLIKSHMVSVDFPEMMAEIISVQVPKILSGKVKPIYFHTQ

B1: GALAD70-N2: GAL4AD fused ARA70 aa 176-401 (other, not shown: large carriers)
chain: GPFLEKRGCISMPEQKSASGIVAVPFSEWLLGSKPASGYQAPYIPSTDPQDWLTQKQTLENSQTSSRACNFFNNVGGNLKGLENWLLKSEKSSYQKCNSHSTTSSFSIEMEKVGDQELPDQDEMDLSDWLVTPQESHKLRKPENGSRETSEKFKLLFQSYNVNDWLVKTDSCTNCQGNQPKGVEIENLGNLKCLNDHLEAKKPLSTPSMVTEDWLVQNHQDPCKVE
notes: also called ARA70-N2 peptide (aa 176 to 401); ARA70-N2
B1: binds [1].

B2: GALAD70-C: GAL4AD fused ARA70 aa 383-614 (other, not shown: large carriers)
chain: SMVTEDWLVQNHQDPCKVEEVCRANEPCTSFAECVCDENCEKEALYKWLLKKEGKDKNGMPVEPKPEPEKHKDSLNMWLCPRKEVIEQTKAPKAMTPSRIADSFQVIKNSPLSEWLIRPPYKEGSPKEVPGTEDRAGKQKFKSPMNTSWCSFNTADWVLPGKKMGNLSQLSSGEDKWLLRKKAQEVLLNSPLQEEHNFPPDHYGLPAVCDLFACMQLKVDKEKWLYRTPLQM
notes: also called ARA70-C (aa 383-614)
B2: no binding [2].

B3: GALAD70-LXXLL: GAL4AD fused ARA70 aa 90-99 (peptide, not shown: large carriers)
chain: QQLYSLLGQF
notes: also called ARA70 LXXLL (aa 90 to 99)
B3: no binding [2].

B4: GALAD70-N: GAL4AD fused ARA70 aa 1-401 (other, not shown: large carriers)
chain: MNTFQDQSGSSSNREPLLRCSDARRDLELAIGGVLRAEQQIKDNLREVKAQIHSCISRHLECLRSREVWLYEQVDLIYQLKEETLQQQAQQLYSLLGQFNCLTHQLECTQNKDLANQVSVCLERLGSLTLKPEDSTVLLFEADTITLRQTITTFGSLKTIQIPEHLMAHASSANIGPFLEKRGCISMPEQKSASGIVAVPFSEWLLGSKPASGYQAPYIPSTDPQDWLTQKQTLENSQTSSRACNFFNNVGGNLKGLENWLLKSEKSSYQKCNSHSTTSSFSIEMEKVGDQELPDQDEMDLSDWLVTPQESHKLRKPENGSRETSEKFKLLFQSYNVNDWLVKTDSCTNCQGNQPKGVEIENLGNLKCLNDHLEAKKPLSTPSMVTEDWLVQNHQDPCKVE
notes: the legend says GAL4AD fusions; also called ARA70N peptide (aa 1 to 401); ARA70-N
B4: binds [1].

B5: VP16 fused AR-LBD (aa 590-918) (receptor)
chain: KQKYLCASRNDCTIDKFRRKNCPSCRLRKCYEAGMTLGARKLKKLGNLKLQEEGEASSTTSPTEETTQKLTVSHIEGYECQPIFLNVLEAIEPGVVCAGHDNNQPDSFAALLSSLNELGERQLVHVVKWAKALPGFRNLHVDDQMAVIQYSWMGLMVFAMGWRSFTNVNSRMLYFAPDLVFNEYRMHKSRMYSQCVRMRHLSQEFGWLQITPQEFLCMKALLLFSIIPVDGLKNQKFFDELRMNYIKELDRIIACKRKNPTSCSRRFYQLTKLLDSVQPIARELHQFTFDLLIKSHMVSVDFPEMMAEIISVQVPKILSGKVKPIYFHT
notes: also called pCMX-VP16-AR
B5: no binding [3].

In the case of B6, the “CAT activity, mammalian two-hybrid system, DU145 cells” value [4] is reported as 3 fold.

B7: ARA70 (mammalian two-hybrid construct of Example 1) (other)
chain: MNTFQDQSGSSSNREPLLRCSDARRDLELAIGGVLRAEQQIKDNLREVKAQIHSCISRHLECLRSREVWLYEQVDLIYQLKEETLQQQAQQLYSLLGQFNCLTHQLECTQNKDLANQVSVCLERLGSLTLKPEDSTVLLFEADTITLRQTITTFGSLKTIQIPEHLMAHASSANIGPFLEKRGCISMPEQKSASGIVAVPFSEWLLGSKPASGYQAPYIPSTDPQDWLTQKQTLENSQTSSRACNFFNNVGGNLKGLENWLLKSEKSSYQKCNSHSTTSSFSIEMEKVGDQELPDQDEMDLSDWLVTPQESHKLRKPENGSRETSEKFKLLFQSYNVNDWLVKTDSCTNCQGNQPKGVEIENLGNLKCLNDHLEAKKPLSTPSMVTEDWLVQNHQDPCKVEEVCRANEPCTSFAECVCDENCEKEALYKWLLKKEGKDKNGMPVEPKPEPEKHKDSLNMWLCPRKEVIEQTKAPKAMTPSRIADSFQVIKNSPLSEWLIRPPYKEGSPKEVPGTEDRAGKQKFKSPMNTSWCSFNTADWVLPGKKMGNLSQLSSGEDKWLLRKKAQEVLLNSPLQEEHNFPPDHYGLPAVCDLFACMQLKVDKEKWLYRTPLQM
notes: pGAL4-VP16 was used to construct a fusion of ARA70; limits and fusion partner not clearly stated
For B7, the binding result [3] was “no binding” and the “CAT activity, mammalian two-hybrid assay” value [5] was 12 fold.

B8: GAL4 DBD fused ARA70-C (aa 383-614) (other)
chain: MKLLSSIEQACDICRLKKLKCSKEKPKCAKCLKNNWECRYSPKTKRSPLTRAHLTEVESRLERLEQLFLLIFPREDLDMILKMDSLQDIKALLTGLFVQDNVNKDAVTDRLASVETDMPLTLRQHRISATSSSEESSNKGQRQLTVSSMVTEDWLVQNHQDPCKVEEVCRANEPCTSFAECVCDENCEKEALYKWLLKKEGKDKNGMPVEPKPEPEKHKDSLNMWLCPRKEVIEQTKAPKAMTPSRIADSFQVIKNSPLSEWLIRPPYKEGSPKEVPGTEDRAGKQKFKSPMNTSWCSFNTADWVLPGKKMGNLSQLSSGEDKWLLRKKAQEVLLNSPLQEEHNFPPDHYGLPAVCDLFACMQLKVDKEKWLYRTPLQM
notes: Mammalian two-hybrid
B8: no binding [6].

B9: GAL4 DBD fused ARA70-N1 (aa 1-175) (other)
chain: MKLLSSIEQACDICRLKKLKCSKEKPKCAKCLKNNWECRYSPKTKRSPLTRAHLTEVESRLERLEQLFLLIFPREDLDMILKMDSLQDIKALLTGLFVQDNVNKDAVTDRLASVETDMPLTLRQHRISATSSSEESSNKGQRQLTVSMNTFQDQSGSSSNREPLLRCSDARRDLELAIGGVLRAEQQIKDNLREVKAQIHSCISRHLECLRSREVWLYEQVDLIYQLKEETLQQQAQQLYSLLGQFNCLTHQLECTQNKDLANQVSVCLERLGSLTLKPEDSTVLLFEADTITLRQTITTFGSLKTIQIPEHLMAHASSANI
notes: Mammalian two-hybrid
B9: no binding [6].

B10: GALAD70-N1: GAL4AD fused ARA70 aa 1-175 (other, not shown: large carriers)
chain: MNTFQDQSGSSSNREPLLRCSDARRDLELAIGGVLRAEQQIKDNLREVKAQIHSCISRHLECLRSREVWLYEQVDLIYQLKEETLQQQAQQLYSLLGQFNCLTHQLECTQNKDLANQVSVCLERLGSLTLKPEDSTVLLFEADTITLRQTITTFGSLKTIQIPEHLMAHASSANI
notes: also called ARA70-N1
B10: no binding [2].
